According to paper PMC7110144 (2020):

B1: His-CAL1(1-160) [Drosophila melanogaster] / CENP-A(101-225)-H4 [Drosophila melanogaster] (parent complex)
chain 1: MANAVVDEETLEAMVYERSKAWSSKMADFASLEDGMEIDVAEFDNLFHGEDEDPDLDDVAKEAVEDNVPDEAKLEMGHINATSVTELTLILCANEDNEAKAEIEEILNQTVPVVEEHKRKWREAGLDRILDTFDEKQIEHHVGRWMRRHNSVYLEASPPK
chain 2: QQESKTRAAGPVAAQNQTRRRKAANPMSRAKRMDREIRRLQHHPGTLIPKLPFSRLVREFIVKYSDDEPLRVTEGALLAMQESCEMYLTQRLADSYMLTKHRNRVTLEVRDMALMAYICDRGRQF
chain 3: not shown
B2: CAL1-HA (in S2 cells) [Drosophila melanogaster] / GFP-LacI-CENP-C (in S2 cells) [Drosophila melanogaster] (parent complex)
chain 1: MANAVVDEETLEAMVYERSKAWSSKMADFASLEDGMEIDVAEFDNLFHGEDEDPDLDDVAKEAVEDNVPDEAKLEMGHINATSVTELTLILCANEDNEAKAEIEEILNQTVPVVEEHKRKWREAGLDRILDTFDEKQIEHHVGRWMRRHNSVYLEASPPKYLPPHHNSISDESDESMHSIDTARYIQQSRRRNAHMTNKNMTTIKMYRKHSHKRDELRAKYAYGDEQEHRHHMQAVLLRRRERERQLAYLASTPMQCVYSSGHHMRRKNLRKRRINSWMFDSASSSEEDTSFGGCDCHSCRRHYALSRSVYQSCPYGRGQREYHHRQMASRTMHTMRRQHTFDMEMDLRPRLPENECSCCNSDRLCSNVIHIANSSTEEWVVENRSNHLTQETQEKTRKQKHQPMDARKVSHQPVCSKGHEQKPLSSKATSVSKLVLSKEKYMQMFDSESSDEDNALAKKGLLCCSDKKKGMTFPTPNAAGKITHPTSSAKKAIRKEARPNGLAQIQEEGPTATNSPIESTYLPVAHMKSVSIDGSSGTSATFESPAKKAPKRGIRETSPLNGNELQQLISTIPIADEKASSLMEKVDNCIGRESFDDRNKDFMHMENSSTKTAVEKSTKQKRVSGKKSEIPKSIITNNEILEKNSTETLSEKQVAAKAKKQSVRKTGATGKPSTSRLKKSEKTKTTSSVTSTSKLEQVREEESDVSSEVLAKPKPQCSTTASILKQGGDGASNSEDDLQIALAMSKATYKEEQQKRKKTKREPSNKQPQSPAEKSMTVFNNQSVACNSTALANDTACYRVLPKRRGVKRAAAVSTTEEKTATNSSSSPTSSLEEMGSPTGGDPDCTVVTSTTGCEPPASERQEIPATIKITKRGILLHSPSAPEGASFTLTEQGLGKIIGERWARKYLKYHIGSRSFDSRHSVYYQPTPQLAAALSAPQDAQNIGNISGSSASDDDIFEQINRYGTVYSILENNSGDK
chain 2: MSKPQNNDTLELDDILSQPVKDKERFAAFMMRKLAENKPAQNDNLFGNFKLDFDLDFEVPLIKKSQAKPKSKLPEVQPLGELVSKNSAATEKVNEPPVDQAPNENVPPRRSPTLSPNNRRSMRRSGNVPGSDKLRRHAIRRRSRSCGRQLLPEFEETVNLTRSISSPVNFLPEISSTPCTEKQKEEVAKNTTRVETDKPAEKPMELSQEPEPENPLQTKVTSPARNPILAAEIEQICKERQSSFHKNVLQLDYSGRAPYSRPPTPSSPSVAGLRRTYTMEKGPAPGQLLLSPSHRYDTPSKMPVVKAKRFNQELMVPDTPERQSHDPAWQSEPQPEFVVPETQPQDLGELVQTLSRSAISPIVVINTSNSNRSVRRDAVAMKSVPTSPVTALSSPPIAPSPRRSAAASPQKSIAQLPRVEENMDAIMTDDESDEHPSTVPLNLAPSGGNTTRQRRLRSSNRARATIESQESSMRLLNLHKSVNAKKSKPRKTAIPLNKAPSAPINGEQFARELTRMSNYEILDLRKRNSLNEIYPLNGHRNHRSEKLILEEEIQRELLRRNLMDEAEGLPKQQSSDDSNEDYIPVPPKTQSLRTKSNDRSQGRGRPRSTRRDLPMTTELVNYLGLSQTLETRRKSSKDGKRCLYTKGSSDHEDNDSLSPVKLPRLSKSIQIVPPPPVSLRYSQSLQNLPCSGKFDFDNVVMAAPPDFHDSVNSDAIEIAPPPPEYVVNTRGRSTSGRKSNKNDLVLPPPGYEGGQEEEHDERPSQPRCTAKELQQSTQNGRRAMENELVPPPIEYVEEENRNNEQSRRSTKNGNLVDRNTHNAVEYCEPPEPPEYDDSDHGQASILRRSGKKLQHSKQSVQKSNKEQIIAPSYENNEDYDSDEEPIYNEEYGKEESQNKNVTRRKSDKDEMASHTLECIEGPDPNWNSSCNKQNRNHQNASKSKENDKLANRSSKSQKLSNPRQNAVGTEKSVALSNRGEECTEKSSDVMESLRVNTPTPPIDQNSDDVPSRNPSPSRTLLSDDVPSTSRAALEFLQRSQNMSKSRPPDESSADVVFKKPLAPAPRAKSKKGKSEVDKLKLAKMPVEAEELNTTGIRRSKRGQVPLQMSWCHTMDPSKFNFMSGFIEPRSKNSKTKKGNLSKAKKASATKPKPTVEKNLPDNRGPLCSSTPRISEKLPGAIPHSESLGLSTLTWEETEVQAEAEKVPKKRGRPKKAVGGVQTDTEAEPEPEPEPMISSVAPLTSDQEEPDVPDEQAPYTEAALGPVVFSTPLRDEQEEASTKLMQWLRGVGDAPPSASMSDENASVSSANELIFCQVDGIDYAFYNTKEKAMLGYMRFKPYQKRSMKQAKVHPLKLLVQFGEFNVETLAVGEEKEVHSVLRVGDMIEIDRGTRYSIQNAIDKVSVLMCIRS
B3: CAL1-V5 (in U2OS cells) [Drosophila melanogaster] / CENP-A-GFP-LacI (in U2OS cells) [Drosophila melanogaster] (parent complex)
chain 1: B2 chain 1
chain 2: MPRHSRAKRAPRPSANNSKSPNDDDTAFRSPEPEDGTDYGLEFTTSQLTLQDNNRRSSTLRRDAGRRQPAARDSSTSGEEEDQENRYPTTRSPQTRRMTVQQESKTRAAGPVAAQNQTRRRKAANPMSRAKRMDREIRRLQHHPGTLIPKLPFSRLVREFIVKYSDDEPLRVTEGALLAMQESCEMYLTQRLADSYMLTKHRNRVTLEVRDMALMAYICDRGRQF

Variants of: B1
Assay: Ni-NTA pull-down, band intensity quantification; parent: 3; read off a plot
For chain 1 W22A, chain 1 F29A, the response was ~0.38 ratio CENP-A101-225/H4:CAL11-160.
In the case of chain 1 W22R, chain 1 F29R, the response is reported as ~0.42 ratio CENP-A101-225/H4:CAL11-160.
For chain 1 W22R, the response was ~0.7 ratio CENP-A101-225/H4:CAL11-160.
chain 1 F43R was tested, and the response was ~1.8 ratio CENP-A101-225/H4:CAL11-160.
chain 1 F29R was tested, and the response was ~2.6 ratio CENP-A101-225/H4:CAL11-160.
With chain 1 F29A the response was ~3.2 ratio CENP-A101-225/H4:CAL11-160.

Variants of: B1
Assay: Ni-NTA pull-down, band intensity quantification; parent: 4.1; read off a plot
chain 2 S54Q, chain 2 M86A, chain 2 Q90G was tested, and the response was ~0.85 ratio CENP-A101-225/H4:CAL11-160.
chain 2 M86A was tested, and the response was ~3.6 ratio CENP-A101-225/H4:CAL11-160.
With chain 2 S54Q, chain 2 M86A the response was ~2.9 ratio CENP-A101-225/H4:CAL11-160.
chain 2 Q90G was tested, and the response was ~2.8 ratio CENP-A101-225/H4:CAL11-160.
For chain 2 S54Q, the response was ~3.5 ratio CENP-A101-225/H4:CAL11-160.

Variants of: B2
Assay: LacO/LacI tethering assay in U2OS cells (fluorescence intensity of CAL1-V5 at the tethering site); parent: 2.1e+03; read off a plot
In the case of chain 1 I900R, chain 1 K907A, chain 1 Y908A, the response is reported as roughly 300 a.u.

Variants of: B2
Assay: LacO/LacI tethering assay in Drosophila S2 cells (fluorescence intensity of CAL1-HA at the tethering site); parent: 650; read off a plot
With chain 1 I900R, chain 1 K907A, chain 1 Y908A the response was roughly 12 a.u.

Variants of: B2
Assay: LacO/LacI tethering assay in U2OS cells (fluorescence intensity of CAL1-V5 at the tethering site); parent: 2.1e+03; read off a plot
Remark: another data set of the same source
For chain 2 L1357E, chain 2 M1407E, the response was roughly 490 a.u.
chain 2 F1324R was tested, and the response was roughly 300 a.u.

Variants of: B2
Assay: LacO/LacI tethering assay in Drosophila S2 cells (fluorescence intensity of CAL1-HA at the tethering site); parent: 650; read off a plot
Remark: another data set of the same source
In the case of chain 2 L1357E, chain 2 M1407E, the response is reported as roughly 60 a.u.
With chain 2 F1324R the response was roughly 35 a.u.

Variants of: B3
Assay: LacO/LacI tethering assay in U2OS cells (fluorescence intensity of CAL1-V5 at the tethering site); parent: 1.1e+03; read off a plot
In the case of chain 1 W22R, chain 1 F29R, the response is reported as roughly 20 a.u.
For chain 1 W22A, chain 1 F29A, the response was roughly 110 a.u.
